In one series the test system is Grape GT. As to the kind of experiment: Substrate specificity of the purified recombinant Grape GT, HPLC analysis of glucose ester formation. The series is classed as biochemical, Vitis sp. The following applies: relative to pHBA = 100, 10 mM test substrate, 0.0467 μM purified Grape GT, 15 min, 25° C. As to the method: To rule out the possibility that the Grape GT can also attach glucose to the hydroxyl group of pHBA, the products of the in vitro enzyme reaction were directly analyzed by reverse phase HPLC. […] Following a 1-min incubation period at 25° C., the reactions were terminated by the addition of an equal volume of 0.2 N HCl. […] The column was developed at 1 mL/min with a linear gradient of 10–50% Buffer B that was generated over a 20-min period, and absorbance was monitored at 254 nm. […] To test this hypothesis, Applicants' decided to examine the substrate specificity of the Grape GT in greater detail. […] Following a 15-min incubation period at 25° C., the reactions were quenched with an equal volume of 0.3 M HCl and the entire reaction mixture was analyzed by HPLC as described above in Example 6. The products of the various reactions were identified using authentic chemical standards. The retention times and extinction coefficients of these compounds were determined using the same column conditions. […] Regardless of substrate, the purified recombinant Grape GT only catalyzed the formation of glucose esters, which in all cases co-migrated precisely with the authentic compounds. […] Since the glucose ester of the latter compound is the precursor for the synthesis of simple and complex tannins that are extremely abundant in grapes, it is possible that gallic acid is a physiological substrate of the Grape GT. The data shown in Table 3 make it clear that although the Grape GT glucosylated mHBA (3-hydroxybenzoic […]) at a reasonable rate, product formation with oHBA (2-hydroxybenzoic acid) was not observed.

Another series has as its target CPL (Escherichia coli, UniProt P26602). Nature of the series: Product inhibition of CPL by pHBA. The series is classed as biochemical, E. coli. The following applies: read-out: inhibitory constant (Ki). As to the method: Although double transformant line 39 and the CPL control plant had essentially the same amount of CPL enzyme activity as measured in leaf extracts (Table 8), this doesn't necessarily reflect the situation in vivo. CPL enzyme assays are conducted under optimal conditions, and measure initial velocities in the presence of excess substrate and absence of products. Thus, the initial rate of product formation in the in vitro assay is strictly proportional to the amount of enzyme that is added to the cuvette. Consequently, if two plants had identical levels of CPL gene expression, leaf extracts prepared from these plants would theoretically yield the same initial velocity in the in vitro assay. […] Applicants confirmed these observations.

For series [1], the system named is Arabidopsis thaliana glucosyltransferase UGT84A3 (GT 4, SEQ ID NO:12). The following applies: 20° C., pH 6; calculated from Vmax of Lim et al. 2001; cited from earlier work.
Series [2] relates to Arabidopsis thaliana glucosyltransferase UGT84A1 (84A1, GT 3, SEQ ID NO:8). As to conditions: 20° C., pH 6; calculated from Vmax of Lim et al. 2001; cited from earlier work.
Series [3] can be described thus: Acid and base hydrolysis of pHBA glucose conjugates, HPLC. The following applies: 48 h at 60° C. with NaOH or HCL, 0.19 mM. The series is classed as physicochemical. As to the method: The initial concentration of both compounds was 0.19 mM and the total reaction volume was […]. Reactions were conducted in tightly sealed polypropylene tubes to prevent evaporative loss. […] Prior to HPLC analysis, the acid hydrolyzed samples were diluted with an equal volume of NaOH that contained a 0.2 mM excess of NaOH relative to the original concentration of HCL. The base hydrolyzed samples were analyzed directly. Chemically synthesized pHBA phenolic and ester glucoside standards and free pHBA were used to calibrate the HPLC runs for retention times, and extinction coefficients for all three compounds were accurately determined under the conditions employed. Peak areas were integrated using the software package provided with the Hewlett Packard Chemstation, and values obtained with known amounts of the chemical standards were used to quantitate compounds of interest in the acid and base hydrolyzed samples.

Series [4] deals with Arabidopsis thaliana glucosyltransferase UGT84A2. The following applies: 20° C., pH 6; calculated from Vmax of Lim et al. 2001; cited from earlier work.
Series [5] is described as follows: Continuous spectrophotometric UDP-glucosyltransferase assay, formation of pHBA glucose ester at 304 nm, E. coli cell-free extracts. Type of series: biochemical. The following applies: crude extract, 10 mM UDP-glucose, pH 7.3, 25° C. As to the method: (§1) For protein production, the resulting recombinant strains were grown at 22° C. in 50 mL of LB media that contained kanamycin (50 μg/mL). At an A600 nm of ˜0.6, isopropyl-1-thio-β-D-galactopyranoside was added to a final concentration of 0.2 mM. Following a 22-h induction period at the same temperature, the cells were harvested by centrifugation and stored at −80° C. for subsequent manipulation as described below.
(§2) The frozen cell pellets were resuspended in 1.0 mL of a solution containing 100 mM Tris-HCl (pH 7.7), 5 mM MgSO4, 1 mM dithiothreitol, 0.03 mg/mL DNAse I, 0.5 mM phenylmethanesulfonyl fluoride, and passed once through a French pressure cell at 20,000 psi. Debris was removed by centrifugation (43,000×g, 60 min), and the resulting cell-free extracts, containing ˜15 mg of protein per mL, were supplemented with 5% glycerol and stored at −80° C. for subsequent measurements of enzyme activities. Protein concentrations were determined by the Bradford Method using bovine serum albumin as a standard.

The nature of series [6]: Continuous spectrophotometric UDP-glucosyltransferase assay, formation of glucose ester of sinapic acid at 368 nm, E. coli cell-free extracts. Type of series: biochemical. The following applies: crude extract, 10 mM UDP-glucose, pH 7.3, 25° C. As to the method:
as §1, §2
(§3) The second assay is based on the increase in absorbance at 368 nm that accompanies the formation of the glucose ester of sinapic acid. The experimental conditions were the same as those described above, but the test substrate was sinapic acid and product formation was calculated using an extinction coefficient of 5,570 M^−1 that was obtained with the authentic chemically synthesized compound under identical conditions.

A short description of series [7]: Ratio of enzyme activity with pHBA versus sinapic acid (spectrophotometric assays). The series is classed as biochemical. The following applies: for pHBA/SA ratio of enzyme activity: crude extract. As to the method:
as §3

Series [8] is described as follows: Reverse phase HPLC analysis of the products of the in vitro enzyme reaction with pHBA. Type of series: biochemical. As to the method:
To rule out the possibility that the Grape GT can also attach glucose to the hydroxyl group of pHBA, the products of the in vitro enzyme reaction were directly analyzed by reverse phase HPLC. […] Following a 1-min incubation period at 25° C., the reactions were terminated by the addition of an equal volume of 0.2 N HCl. The samples were briefly centrifuged, and 20-μL aliquots of the resulting supernatants were injected onto a Vydac 218TP54 Protein and Peptide C18 column, (Grace Vydac, Hesperia, Calif.) pre-equilibrated with 90% Buffer A (0.1% formic acid in water) and 10% Buffer B (methanol). The column was developed at 1 mL/min with a linear gradient of 10–50% Buffer B that was generated over a 20-min period, and absorbance was monitored at 254 nm.
In light of these observations, it was extremely important to analyze the reaction products of the Grape GT over a broader range of pH that encompasses physiological conditions. […] In addition, the reaction mixtures also contained 100 mM potassium phosphate buffer (pH 6.0, 7.0 or 8.0), 5 mM MgCl2, 5 mM UDP-glucose, 2 mM dithiothreitol, and 0.47 μM of the purified recombinant Grape GT. After a 15-min incubation period, the reactions were terminated by the addition of an equal volume of 0.3 M HCl and analyzed by reverse phase HPLC as described above. […]

Series [9] in a line: Freeze/thaw stability of the purified recombinant Grape GT. The series is classed as physicochemical. As to conditions: diluted in buffer with 6% glycerol and 5 mM dithiothreitol, kept on ice, frozen to −80° C. Here is the method:
For all the enzyme assays described below, frozen aliquots of the purified Grape GT were rapidly thawed and diluted to the desired concentration with ice-cold buffer containing 50 mM Tris-HCl (pH 7.6), 1 mM EDTA, 10 mM Na2SO3, 300 mM NaCl, 6% glycerol and 5 mM dithiothreitol.

CPL, sequence (P26602 whole entry): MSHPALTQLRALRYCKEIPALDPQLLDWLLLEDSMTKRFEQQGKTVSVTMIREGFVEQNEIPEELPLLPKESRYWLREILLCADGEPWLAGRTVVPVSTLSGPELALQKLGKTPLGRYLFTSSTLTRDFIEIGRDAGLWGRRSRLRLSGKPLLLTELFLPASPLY

Turning to `O=C(O)/C=C/c1ccc(O)c(O)c1` [Caffeic acid, caffeic acid], the “Relative Rate of product formation” value in the series with Grape GT is reported as 25.

For the molecule `COc1cc(/C=C/C(=O)O)ccc1O` [Ferrulic acid, ferrulic acid], the “Relative Rate of product formation” value with Grape GT is 16.

As for `O=C(O)c1cc(O)c(O)c(O)c1` [Gallic acid, 3,4,5-trihydoxybenzoic acid], the “Relative Rate of product formation” value in the series on Grape GT was 64.

With `O=C(O)c1cccc(O)c1` [MHBA, m-Hydroxybenzoic acid], the “Relative Rate of product formation” value in the series on Grape GT came out at 47.

Regarding `O=C(O)c1ccccc1O` [OHBA, o-Hydroxybenzoic acid], the “Relative Rate of product formation” value in the series with Grape GT is 0.

In general, Ki refers to the equilibrium dissociation constant of an inhibitor or competing ligand from its target. With `O=C(O)c1ccc(O)cc1` [PHBA, p-Hydroxybenzoic acid], in the series on Grape GT, the “Relative Rate of product formation” value turned out to be 100. Also, the Ki on CPL was around 2000 nM.

For the molecule `O=C(O)C=Cc1ccc(O)cc1` [PHCA, 4-hydroxycinnamic acid], the “Relative Rate of product formation” value with Grape GT came to 56.

On to `COc1cc(/C=C/C(=O)O)cc(OC)c1O` [Sinapic acid], for which the “Relative Rate of product formation” value in the series on Grape GT was found to be 10.

In the case of `O=C(O)/C=C/c1ccccc1` [cinnamic acid], the “turnover number with cinnamic acid” value in [1] is around 0.9 s⁻¹.

For the molecule `O=C(O)/C=C/c1ccc(O)cc1` [p-hydroxycinnamic acid], the “turnover number with p-hydroxycinnamic acid” value in [2] was around 0.70 s⁻¹.

For `O=C(O[C@@H]1O[C@H](CO)[C@@H](O)[C@H](O)[C@H]1O)c1ccc(O)cc1` [pHBA glucose ester], in [3], the “susceptibility to acid and base hydrolysis” value was “far more susceptible to acid and base hydrolysis than the pHBA phenolic glucoside”.

Turning to `COc1cc(/C=C/C(=O)O)cc(OC)c1O` [sinapic acid, Sinapic acid], the “turnover number with sinapic acid” value in [4] is around 0.72 s⁻¹.

B1: Grape GT: Vitis sp. UDP-glucosyltransferase, SEQ ID NO:18, recombinant from E. coli (protein)
chain: MGSESKLVHVFLVSFPGQGHVNPLLRLGKRLASKGLLVTFSTPESIGKQMRKASNITDQPTPVGEGLIRFEFFEDEWDENEPKRQDLDLYLPQLELVGKKVLPQMIKKHAEQDRPVSCLINNPFIPWVSDVAADLGIPSAMLWVQSCACFSTYYHYYHGLVPFPSEAEPEIDVQLPCMPLLKYDEVASFLYPTTPYPFLRRAILGQYRNLDKPFCILMDTFQELEPEVIEYMSKICPIKPVGPLYKNPKVPNAAVRGDFMKADDCIEWLDSKPPSSIVYVSFGSVVYLKQDQVDEIAYGLLNSGLQFLWVMKPPHKDAGLELLVLPEGFLEKAGDKGKVVQWSPQEQVLAHPSVACFVTHCGWNSSMEALSSGMPVVAFPQWGDQVTDAKYLVDEFKIGVRMCRGEAENKLITRDEVEKCLIEATTGPKAAELKQNAMKWKKAAEQAVAEGGSSERNLQGFVDEVRRRSIEIIYKTKI
modifications: Vitis ssp.
With B1, the “initial rate of product formation, 1 mM pHBA” value in series [5] (1 mM pHBA) was determined as 96.4 μM per min. For the same molecule, the “initial rate of product formation, 5 mM pHBA” value in [5] (5 mM pHBA) was found to be 177 μM per min. For the same molecule, the “initial rate of product formation, 10 mM pHBA” value in series [5] (10 mM pHBA) stood at 181 μM per min. The “initial rate of product formation, 1 mM SA” value in series [6] (1 mM sinapic acid) came out at 22.8 μM per min. In series [6] (5 mM sinapic acid), the “initial rate of product formation, 5 mM SA” value is on record as 16.6 μM per min. For the same molecule, the “initial rate of product formation, 10 mM SA” value in series [6] (10 mM sinapic acid) turned out to be 4.8 μM per min. Besides, the “substrate preference for pHBA over sinapic acid” value in [7] (10 mM substrate concentration) amounted to 37.7 fold. For the same molecule, the “rate of pHBA glucosylation relative to sinapic acid” value in [7] (10 mM substrate, cell-free extract) is recorded as around 40 times. Further, in series [7] (Table 4, cell-free extracts, 10 mM pHBA or sinapic acid, 25° C.), the “Ratio of Activity pHBA/SA” value worked out at 37.7. Also, the “pHBA/SA ratio of enzyme activity” value in series [7] (1 mM substrate) turned out to be 4.23; in series [7] (5 mM substrate) it was 10.7; in series [7] (10 mM substrate), 37.7. The “glucose conjugates detected by HPLC” value in [8] (pH 6.0, 7.0 or 8.0, 0.15 mM or 5 mM pHBA, 0.47 μM purified Grape GT, 15 min) was “the only glucose conjugate that was detected in the in vitro assay was the pHBA glucose ester”. Further, the “glucosylated products detected by HPLC” value in series [8] (purified enzyme, pH 7.3, 0.3 mM pHBA, 5 mM UDP-glucose, 25° C. (Example 6)) is recorded as “the only glucosylated product that was detected in the fractionated enzyme reaction mixture was the pHBA glucose ester”. Moreover, in [9], the stability to freeze/thaw result is “stable to multiple cycles of freeze/thaw without significant loss of enzyme activity”.
